In PMC7572726:

How the values were obtained:
[1] = target: Capnocytophaga granulosa STING (Capnocytophaga granulosa); experiment: crystal structure
[2] = target: SfSTING with the TIR domain removed (ΔTIR) (Sphingobacterium faecium); experiment: SEC-MALS
[3] = target: TIR-only construct of SfSTING with the cyclic dinucleotide binding domain removed (ΔCDN) (Sphingobacterium faecium); experiment: SEC-MALS

Substance: Capnocytophaga granulosa STING (from UniProt A0A381HAP5 151-314) (domain or fragment)
- stoichiometry N [1]: 2

Substance: SfSTING with the TIR domain removed (ΔTIR) (domain or fragment)
- stoichiometry N [2]: 2

Substance: TIR-only construct of SfSTING with the cyclic dinucleotide binding domain removed (ΔCDN) (domain or fragment)
- stoichiometry N [3]: 2
